Measured values: PMC11316637 (Structure (London, England : 1993), 2024)

Biological target: A/New Caledonia/20/1999 (H1N1) hemagglutinin, truncated recombinant HA (Influenza A virus A/New …, UniProt Q6WG00, strain)
Assay: ELISA

B1: mAb BE1 (whole mouse antibody) (antibody, V domains shown)
VH: EVQLVESGGGLVQPKGSLKLSCATSGFTFNTFDMHWVRQAPGKDLEWVARIRTKGNSYATYYAASVKDRITISRDDSQSMLYLEMNSLRSEDTAMYYCVREGGHYYGYYFDFWGQGTTLTVSS
VL: EIQMTQTTSSLSASLGDRVTISCRASQDIYNYLNWYQQQPDGAVKLLIYYTSKLHSGVPSRFSGSGSGTDYSLTITNLEQEDIATYFCQQGYTLPYTFGGGTKLEIK
B1: binds.
